{
  "source": "patent US7329737",
  "about": "(DYAX, dated 2008)",
  "binders": {"B1": {"name": "M0138-C09 (Fab, V domains shown)", "VH": "EVQLLESGGGLVQPGGSLRLSCAASGFTFSPYRMSWVRQAPGKGLEWVSVISPSGGITEYADSVKGRFTISRDNSKNTLYLQMNSLRAEDTAVYYCAKHERGSGYYVTPPAGAFDIWGQGTMVTVSS", "VL": "AQSELTQPASVAGSPGQSITISCTGTSSDVGLYNFVSWYQQHPGKAPKLMIYDVSRRPSGVSNRFSASKSGTRASLTVSGLQAEDEADYYCSSYAGSNNYVFGTGTKVTVLG"}, "B2": {"name": "M0133-E02 (Fab, V domains shown)", "VH": "EVQLLESGGGLVQPGGSLRLSCAASGFTFSWYTMTWVRQAPGKGLEWVSSIYPSGGHTSYADSVKGRFTISRDNSKNTLYLQMNSLRAEDTAVYYCAKDTRVGPWLVRAPLDYWGQGTLVTVSS", "VL": "not shown"}, "B3": {"name": "M0138-G11 (Fab, V domains shown)", "VH": "B2 VH with L79F", "VL": "not shown"}, "B4": {"name": "M0136-E10 (Fab, V domains shown)", "VH": "EVQLLESGGGLVQPGGSLRLSCAASGFTFSPYNMAWVRQAPGKGLEWVSSIWPSGGRTRYADSVKGRFTISRDNSKNTLYLQMNSLRAEDTAVYYCAKGVRSSGLLERGRVYDAFDIWGQGTMVTVSS", "VL": "DIQMTQSPGTLSLSPGERATLSCRASQSVTTFLAWYQRKPGQAPRLLIYGASSRAADIPDRFSGSGSGTDFTLTISRLEPEDLAVYYCQQYRFSPPTFGPGTTVDIRR"}, "B5": {"name": "M0097-G01 (Fab, V domains shown)", "VH": "EVQLLESGGGLVQPGGSLRLSCAASGFTFSPYYMQWVRQAPGKGLEWVSGISSSGGSTQYADSVKGRFTISRDNSKNTLYLQMNSLRAEDTAVYYCARSQRRTYYPNFGDAFDIWGQGTMVTVSS", "VL": "DIQMTQSPSSLSASVGDRVTITCRASQGIGNYLVWYQHKPGNVPRVLIYAASTLQSGVPSRFRGSGSGTDFTLTISGLQPEDVATYYCQKYDGAPFTFGPGTKVDLKR"}, "B6": {"name": "M0114-G09 (Fab, V domains shown)", "VH": "EVQLLESGGGLVQPGGSLRLSCAASGFTFSHYAMDWVRQAPGKGLEWVSVIYSSGGKTTYADSVKGRFTISRDNSKNTLYLQMNSLRAEDTAMYYCARVGVWYGMDVWGQGTTVTVSS", "VL": "AQSALTQPASVSGSPGQSITISCTGTSSDVGSYKLVSWYQQHPGKAPKLMIYEGSKRPSGVSNRFSGSKSGNTASLTISGLQAEDEADYYCCSYAGSSTWVFGGGTKLTVLG"}, "B7": {"name": "M0138-A03 (Fab, V domains shown)", "VH": "EVQLLESGGGLVQPGGSLRLSCAASGFTFSFYLMFWVRQAPGKGLEWVSGIYPSGGQTVYADSVKGRFTISRDNSKNTLYLQMNSLRAEDTAVYYCARAIGAGSSFWGQGTLVTVSS", "VL": "DIQMTQSPSSVSASVGDRVTITCRASQGISSWLAWYQQKPGKAPKLLIYAASSLQSGVPSRFSGSGSGTDFTLTISSLQPEDFATYYCQQANSFPHTFGQGTKLEIKR"}, "B8": {"name": "M0135-H01 (Fab, V domains shown)", "VH": "EVQLLESGGGLVQPGGSLRLSCAASGFTFSAYLMAWVRQAPGKGLEWVSSIRPSGGETRYADSVKGRFTISRDNSKNTLYLQMNSLRAEDTAVYYCTRDQKGYPDSSSFRRYYYYYGMDVWGQGTTVTVSS", "VL": "not shown"}, "B9": {"name": "M0108-D11 (Fab, V domains shown)", "VH": "EVQLLESGGGLVQPGGSLRLSCAASGFTFSWYVMTWVRQAPGKGLEWVSVIYPSGGATKYADSVKGRFTISRDNSKNTLYLQMNSLRAEDTAVYYCARRGAGGMDVWGQGTTVTVSS", "VL": "AQSVLTQPASVSGSPGQSITISCTGTNTDVGGYNLVSWYQQHPGKAPKLIIYEVSNRPSGVSNRFSGSKSGNTASLTISGLQAEDEVDYYCGSYTSSSTHVFGSGTKVTVLG"}, "B10": {"name": "M0136-E12 (Fab, V domains shown)", "VH": "B6 VH with H31N, A33S, D35Q, V50S, Y52G, S53P, K57R, T59W, M93V", "VL": "DIQMTQSPSSLSASVGDRVTITCRASHVINIDLGWYQQKPGKAPKLLIYGASHLQRGVPSRFSGSGSGTVFTLTISGLQPEDFATYYCLQDSFYPRTFGQGTRLEIKR"}, "B11": {"name": "M0136-D07 (Fab, V domains shown)", "VH": "EVQLLESGGGLVQPGGSLRLSCAASGFTFSPYKMGWVRQAPGKGLEWVSSIYPSGGVTTYADSVKGRFTISRDNSKNTLYLQMNSLRAEDTAVYYCTKNINLRYDILTGYFDIWGQGTTVTVSS", "VL": "B7 VL with G28D, S30A, G41E, A43V, S76N, H96F, Q100P, L104V, E105D, I106F"}, "B12": {"name": "M0138-E02 (Fab, V domains shown)", "VH": "B6 VH with A33M, D35H, V50G, Y52G, S53P, T59P, M93V", "VL": "B7 VL with A34V, N92K, S93T, H96L, Q100G, L104V"}, "B13": {"name": "M0131-F09 (Fab, V domains shown)", "VH": "B6 VH with A33V, D35Q, V50G, Y52G, S53P, K57S, M93V", "VL": "DIQMTQSPATLSLSPGERATLSCRASQSVSSYLAWYQQKPGQAPRLLIYDASNRATGIPARFSGSGSGTDFTLTISSLEPEDFAVYYCQQRSNWLWTFGQGTKVEIKR"}, "B14": {"name": "M0134-B03 (Fab, V domains shown)", "VH": "EVQLLESGGGLVQPGGSLRLSCAASGFTFSHYSMFWVRQAPGKGLEWVSSIYPSGGQTDYADSVKGRFTISRDNSKNTLYLQMNSLRAEDTAVYYCARRGLLWSFDSWGQGTLVTVSS", "VL": "AQSALTQPPSASGSPGQSVTISCTGTSSDVGAYNYVSWYQQHPGKAPKLIIYEVNKRPSGVPDRFSASKSGNTASLTVSGLQAEDEADYYCNSYAGSNSLIFGGGTKLTVLG"}, "B15": {"name": "M0098-G05 (Fab, V domains shown)", "VH": "EVQLLESGGGLVQPGGSLRLSCAASGFTFSKYKMGWVRQAPGKGLEWVSYIRPSGGMTFYADSVKGRFTISRDNSKNTLYLQMNSLRAEDTAVYYCTREHYQASYSSSAWFRMVPAGAFDIWGQGTMVTVSS", "VL": "DIQMTQSPSSLSASVGDRVTITCRASQTISRYLNWYQQKPGTAPKLLIYAASSLQSGVPSRFSGDGSGTDFTLTISSLQPEDFGIYFCQQSYSAPRTFGQGTKVEIKR"}, "B16": {"name": "M0139-C02 (Fab, V domains shown)", "VH": "B15 VH with K31Y, G35H, Y50V, R52Y, M57K, F59T", "VL": "DIQMTQSPSSLSASVGDRVTITCRASQGIRRAWYQQKPGKPPKLLINDASSLESGVPSRFSGSGSGTDFTLTISSLQPEDFATYYCQQSYSTPPWTFGQGTKVEIKR"}, "B17": {"name": "M0110-F08 (Fab, V domains shown)", "VH": "EVQLLESGGGLVQPGGSLRLSCAASGFTFSNYVMYWVRQAPGKGLEWVSGIGPSGGFTTYADSVKGRFTISRDNSKNTLYLQMNSLRAEDTAVYYCTRDRYFGSGYYMAAYYYYGMDVWGQGTTVTVSS", "VL": "DIQMTQSPGTLSLSPGERATLSCRASQSVVSNFLAWYQQKPGQAPRLLIYGASSRATGIPDRFSGSGSGTDFILTISRLEPEDFAVYYCQQYGSSPYSFGQGTKLEIKR"}, "B18": {"name": "M0111-D11 (Fab, V domains shown)", "VH": "EVQLLESGGGLVQPGGSLRLSCAASGFTFSWYAMMWVRQAPGKGLEWVSSIWPSGGHTKYADSVKGRFTISRDNSKNTLYLQMNSLRAEDTAVYYCATDQGYFWGQGTLVTVSS", "VL": "DIQMTQSPATLSLSPGDRATLSCRASQRVSSTFLAWYQQRPGQAPRLVIFGTSSRATGIPDRFSGSGSGTDFTLTISRLEPEDFAVYYCHQYGSSPRTFGQGTKVEIKR"}, "B19": {"name": "M0097-F03 (Fab, V domains shown)", "VH": "EVQLLESGGGLVQPGGSLRLSCAASGFTFSNYLMYWVRQAPGKGLEWVSSIRPSGGNTLYADSVKGRFTISRDNSKNTLYLQMNSLRAEDTAVYYCRRGILTGYYWGYYYYMDVWGKGTTVTVSS", "VL": "DIQMTQSPATLSVSPGGRATLSCRASQSVRKNVAWYQQKPGQPPRLLIYGASTRATGVPARFSGSGSGTEFTLTISRMQPEDFVVYHCQQYSSWPAFGQGTMVEINR"}, "B20": {"name": "M0102-E09 (Fab, V domains shown)", "VH": "EVQLLESGGGLVQPGGSLRLSCAASGFTFSLYLMEWVRQAPGKGLEWVSSIGSSGGATWYADSVKGRFTISRDNSKNTLYLQMNSLRAEDTAMYYCATDTSRVAGTRLRNYYYYYGMDVWGQGTTVTVSS", "VL": "DIQMTQSPDSLSLSPGERATLSCRASQSISSSYLAWYQQTPGQAPRLLIYHASSRATGVPARFSGSGSGTDFTLTISSLEPEDFAVYYCQQRNNWPPSFTFGGGTKVETKR"}, "B21": {"name": "M0106-G12 (Fab, V domains shown)", "VH": "EVQLLESGGGLVQPGGSLRLSCAASGFTFSWYRMHWVRQAPGKGLEWVSSIWPSGGKTHYADSVKGRFTISRDNSKNTLYLQMNSLRAEDTAVYYCARALQYGSGSYFYAPKSYYYYGMDVWGQGTTVTVSS", "VL": "DIQMTQSPSFVSASIGDRVTITCRASQSIGTLLNWYQHKPGTVPSLLIYGNLRGGVPARFSGSGSGTDFTLTISSLQPEDFATYYCQHDTFGGGTKVDIKR"}},
  "note": "Where a chain is given by its changes, count along the chain named.",
  "data": [
    {"biological_target": "T1, hK1 (human tissue kallikrein 1), recombinant (human, UniProt P06870 25-262)", "T1 construct": "Expressed in P. pastoris from KLK1 cDNA and purified; enzymatically active; also called KLK1; Recombinant (Pichia) Kallikrein", "assay": "SPR", "units": {"Kd": "nM", "koff": "s⁻¹", "kon": "M⁻¹ s⁻¹"}, "values": [
      {"binder": "B1", "Kd": 8.78, "koff": 0.00153, "kon": 175000},
      {"binder": "B2", "Kd": 6.42, "koff": 0.00146, "kon": 227000},
      {"binder": "B3", "Kd": 6.19, "koff": 0.00161, "kon": 260000},
      {"binder": "B4", "Kd": 9.66, "koff": 0.00106, "kon": 110000},
      {"binder": "B5", "Kd": 4.8, "koff": 0.000832, "kon": 173000},
      {"binder": "B6", "Kd": 1.46, "koff": 0.00062, "kon": 424000},
      {"binder": "B7", "Kd": 1.71, "koff": 0.000325, "kon": 190000},
      {"binder": "B8", "Kd": 2.03, "koff": 0.000396, "kon": 195000},
      {"binder": "B9", "Kd": 2.09, "koff": 0.00069, "kon": 330000},
      {"binder": "B10", "Kd": 2.23, "koff": 0.00107, "kon": 481000},
      {"binder": "B11", "Kd": 2.26, "koff": 0.000397, "kon": 176000},
      {"binder": "B12", "Kd": 2.26, "koff": 0.00138, "kon": 614000},
      {"binder": "B13", "Kd": 2.36, "koff": 0.000734, "kon": 311000},
      {"binder": "B14", "Kd": 2.41, "koff": 0.00096, "kon": 399000}
    ]},
    {"biological_target": "T1, hK1 (human tissue kallikrein 1), …", "assay": "cell-based or functional assay", "units": {"IC50 (nM), inhibition of hK1 hydrolysis of Pro-Phe-Arg-AMC": "nM", "IC50 (nM), inhibition of hK1 enzyme activity": "nM"}, "values": [
      {"binder": "B1", "IC50 (nM), inhibition of hK1 hydrolysis of Pro-Phe-Arg-AMC": 10.9},
      {"binder": "B15", "IC50 (nM), inhibition of hK1 hydrolysis of Pro-Phe-Arg-AMC": 4},
      {"binder": "B2", "IC50 (nM), inhibition of hK1 hydrolysis of Pro-Phe-Arg-AMC": 2.4},
      {"binder": "B3", "IC50 (nM), inhibition of hK1 enzyme activity": 28},
      {"binder": "B4", "IC50 (nM), inhibition of hK1 enzyme activity": 22},
      {"binder": "B5", "IC50 (nM), inhibition of hK1 hydrolysis of Pro-Phe-Arg-AMC": 7.2},
      {"binder": "B16", "IC50 (nM), inhibition of hK1 hydrolysis of Pro-Phe-Arg-AMC": 1},
      {"binder": "B17", "IC50 (nM), inhibition of hK1 enzyme activity": 44},
      {"binder": "B18", "IC50 (nM), inhibition of hK1 enzyme activity": 160},
      {"binder": "B19", "IC50 (nM), inhibition of hK1 hydrolysis of Pro-Phe-Arg-AMC": 1.1},
      {"binder": "B20", "IC50 (nM), inhibition of hK1 hydrolysis of Pro-Phe-Arg-AMC": 0.89},
      {"binder": "B21", "IC50 (nM), inhibition of hK1 hydrolysis of Pro-Phe-Arg-AMC": 5.1}
    ]}
  ]
}
